Where no end group is shown, it is not given here. [ ]: non-standard residue; d: D form. The star is where a group is joined. Myristoyl = CCCCCCCCCCCCCC(=O)*; pS = N[C@@H](COP(=O)(O)O)C(=O)O
Columns and labels:
[1] = system: GSK-3β mutants Q89A, N95A, R92A, K94A and F93Y; assay: In vitro kinase assay with other GSK-3β mutants in presence or absence of inhibitor; type: biochemical, human; conditions: data not shown
Source text: (§1) GSK-3β in the pCMV4 vector was used as the template for mutagenesis. Mutations were generated using QuickChange Site Directed Mutagenesis Kit (Stratagene, La Jolla, Calif., USA) according the manufacturer's protocols. Mutations included replacement of D90, K91, R92, F93, K94, V214 to alanine, F93 to tyrosine, and a triple mutation at residues 91-93. All constructs were sequenced to confirm the presence of desired mutations. The sequences of mutagenic oligonucleotides are available from the inventors upon request.
(§2) HEK-293 cells were grown in Dulbecco's Modified Eagle's Medium (DMEM), supplemented with 10% fetal calf serum (FCS), 2 mM glutamine, 100 units/ml penicillin, and 100 μg/ml streptomycin. HEK-293 cells were transiently transfected with indicated constructs, using calcium phosphate method as described [Ilouz et al. (2006) supra]. Cells were lysed in ice-cold buffer G (20 mM Tris-HCl, pH 7.5, 10 mM β-glycerophosphate, 10% glycerol, 1 mM EGTA, 1 mM EDTA, 50 mM NaF, 5 mM sodium pyrophosphate, 0.5 mM orthovanadate, 1 mM benzamidine, 10 μg/ml leupeptin, 5 μg/ml aprotinin, 1 μg/ml pepstatin, and 0.5% Triton X100). Cell extracts were centrifuged for 30 minutes at 15,000×g. […] In all experiments, GSK-3 mutants were expressed at levels at least 5-fold higher than levels of the endogenous GSK-3β as determined by western blot analysis. […]

[2] = molecular target: T1, F93A mutant GSK-3β (Homo sapiens, UniProt P49841, F93A); assay: In vitro kinase assay with F93A mutant in presence or absence of inhibitor; type: biochemical; conditions: FIGS. 2B, 2C
T1 construct: made in house; host or cells: HEK-293 (transient transfection, pCMV4 vector; DE-52 partial purification)
Source text: as §1, §2

[3] = molecular target: T2, GSK-3β (Homo sapiens, UniProt P49841); assay: In vitro kinase assay with GSK-3β in the presence of peptide inhibitor; type: biochemical; conditions: for Inhibition of WT-GSK-3β compared with L803: 250 μM each, FIGS. 3B, 3C
T2 construct: made in house; host or cells: HEK-293 (transient transfection, pCMV4 vector; DE-52 partial purification)
Description: (§3) (0.5 μCi/assay) for 15 minutes.
The ability of each peptide to inhibit GSK-3β was then determined by in vitro kinase assays as described hereinabove.

[4] = system: p9CREB; assay: In vitro kinase assay of GSK-3β mutants, substrate p9CREB; type: biochemical; conditions: WT set to 100%; mean of 2-3 experiments ± SEM
Description: (§4) HEK-293 cells were grown in Dulbecco's Modified Eagle's Medium (DMEM), supplemented with 10% fetal calf serum (FCS), 2 mM glutamine, 100 units/ml penicillin, and 100 μg/ml streptomycin. HEK-293 cells were transiently transfected with indicated constructs, using calcium phosphate method as described [Ilouz et al. (2006) supra]. Cells were lysed in ice-cold buffer G (20 mM Tris-HCl, pH 7.5, 10 mM β-glycerophosphate, 10% glycerol, 1 mM EGTA, 1 mM EDTA, 50 mM NaF, 5 mM sodium pyrophosphate, 0.5 mM orthovanadate, 1 mM benzamidine, 10 μg/ml leupeptin, 5 μg/ml aprotinin, 1 μg/ml pepstatin, and 0.5% Triton X100). Cell extracts were centrifuged for 30 minutes at 15,000×g. Supernatants were collected, and equal amounts of proteins were boiled with SDS sample buffer and subjected to gel electrophoresis (7.5-12% polyacrylamide gel), transferred to nitrocellulose membranes, and immunoblotted with indicated antibodies. For partial purification, cells were lysed in buffer H (20 mM Tris, pH 7.3, 1 mM EGTA, 1 mM EDTA, 1 mM orthovanadate, 25 μg/ml leupeptin, 25 μg/ml aprotinin, and 25 μg/ml pepstatin A, 500 nM microcystine LR, and 0.25% Triton X100). The lysates were centrifuged at 15,000×g. The resulting supernatants were passed through DE-52 (Whatman, Maidstone, England) mini-columns that were equilibrated with buffer H. GSK-3β proteins were eluted with the same buffer containing 0.02 M NaCl. Equal amounts of proteins were used for in vitro kinase assays. In all experiments, GSK-3 mutants were expressed at levels at least 5-fold higher than levels of the endogenous GSK-3β as determined by western blot analysis.
as §3
(§5) The GSK-3β mutants were partially purified by ion exchange chromatography, and their abilities to phosphorylate peptide substrates were tested in in vitro kinase assays. The substrates were: pIRS-1, p9CREB, and pGS-1, phosphorylated peptides derived from the insulin receptor substrate-1 (IRS-1), cAMP responsive element binding protein (CREB), and glycogen synthase, respectively.
(§6) The results are presented in Table 1, as the percentage of substrate phosphorylation (indicated peptides, pIRS-1, p9CREB and pGS-1) obtained with WTGSK-3β which was set to 100%, and are mean of 2-3 independent experiments each performed in duplicates±SEM.

[5] = system: pGS-1; assay: In vitro kinase assay of GSK-3β mutants, substrate pGS-1; type: biochemical; conditions: WT set to 100%; mean of 2-3 experiments ± SEM
Description: as §4, §3, §5, §6

[6] = system: pIRS-1; assay: In vitro kinase assay of GSK-3β mutants, substrate pIRS-1; type: biochemical; conditions: WT set to 100%; mean of 2-3 experiments ± SEM
Description: as §4, §3, §5, §6

T2 sequence (P49841 1-433 isoform P49841-2): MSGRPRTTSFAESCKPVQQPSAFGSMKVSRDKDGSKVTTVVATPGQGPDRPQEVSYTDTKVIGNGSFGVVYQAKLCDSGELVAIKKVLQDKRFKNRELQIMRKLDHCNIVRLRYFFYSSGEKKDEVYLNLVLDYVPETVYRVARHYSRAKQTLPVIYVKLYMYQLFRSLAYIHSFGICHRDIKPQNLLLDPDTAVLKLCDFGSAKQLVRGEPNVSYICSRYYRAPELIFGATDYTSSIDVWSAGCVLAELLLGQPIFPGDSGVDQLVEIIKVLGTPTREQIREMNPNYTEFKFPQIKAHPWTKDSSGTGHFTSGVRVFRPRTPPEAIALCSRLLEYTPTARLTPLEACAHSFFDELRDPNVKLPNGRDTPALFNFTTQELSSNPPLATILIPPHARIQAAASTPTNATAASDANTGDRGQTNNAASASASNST
T1 sequence (P49841 1-433 isoform P49841-2 F93A): as the sequence (P49841 1-433 isoform P49841-2) above, with F93A counted along it

## KEAPPAPPQS(p)P (KEAPPAPPQ[pS]P) [L803]
[1]
  Inhibition of other GSK-3β mutants: inhibited all other mutants
[2]
  Inhibition of F93A mutated enzyme: did not inhibit

## L803-mts: L803 in which myristic acid was attached to its N-terminal, cell permeable, SEQ ID NO:5 (Myristoyl-GKEAPPAPPQSP; not fully specified (residue 11))
[1]
  Inhibition of other GSK-3β mutants: able to inhibit all other mutants
[3]; purified GSK-3β, 100 μM, FIG. 2A
  Competition with substrates pIRS-1, p9CREB, pGS-1: competes with various substrates
[2]
  Inhibition of F93A mutated enzyme: did not inhibit

## Lys-Ala-Ala-Pro-Pro-Ala-Pro-Pro-Gln-phosphorylated Ser-Pro [PE2A]
[3]
  Inhibition of WT-GSK-3β compared with L803: slightly impaired

## Lys-Glu-Ala-Pro-Pro-Ala-Pro-Pro-Ala-phosphorylated Ser-Pro [PQ9A]
[3]; 250 μM, FIG. 3B
  Increase of inhibition relative to L803: about two-fold

## Lys-Glu-Ala-Pro-Pro-Ala-Pro-Pro-Pro-phosphorylated Ser-Pro [PQ9P]
[3]; L803, PQ9A and PQ9P compared, FIG. 5
  Inhibition activity, dose-response comparative plots: enhanced inhibition activity

## PQ9R: L803 variant, Gln 9 replaced with arginine, SEQ ID NO:14 (KEAPPAPPRSP; PQ9R synthetic peptide)
[3]
  Inhibition of WT-GSK-3β compared with L803: non-inhibitory

## PQ9Y: L803 variant, Gln 9 replaced with tyrosine, SEQ ID NO:15 (KEAPPAPPYSP; PQ9Y synthetic peptide)
[3]
  Inhibition of WT-GSK-3β compared with L803: non-inhibitory

B1: R92A: GSK-3β mutant, R92 replaced by alanine, SEQ ID NO:8 (protein)
chain: MSGRPRTTSFAESCKPVQQPSAFGSMKVSRDKDGSKVTTVVATPGQGPDRPQEVSYTDTKVIGNGSFGVVYQAKLCDSGELVAIKKVLQDKAFKNRELQIMRKLDHCNIVRLRYFFYSSGEKKDEVYLNLVLDYVPETVYRVARHYSRAKQTLPVIYVKLYMYQLFRSLAYIHSFGICHRDIKPQNLLLDPDTAVLKLCDFGSAKQLVRGEPNVSYICSRYYRAPELIFGATDYTSSIDVWSAGCVLAELLLGQPIFPGDSGVDQLVEIIKVLGTPTREQIREMNPNYTEFKFPQIKAHPWTKDSSGTGHFTSGVRVFRPRTPPEAIALCSRLLEYTPTARLTPLEACAHSFFDELRDPNVKLPNGRDTPALFNFTTQELSSNPPLATILIPPHARIQAAASTPTNATAASDANTGDRGQTNNAASASASNST
modifications: GSK-3 beta, R92A mutant
[4]
  Substrate phosphorylation (% of WTGSK-3β), p9CREB: 49 ± 19 % of WTGSK-3β
[5]
  Substrate phosphorylation (% of WTGSK-3β), pGS-1: 41 ± 14 % of WTGSK-3β
[6]
  Substrate phosphorylation (% of WTGSK-3β), pIRS-1: 60 ± 3 % of WTGSK-3β

B2: K94A: GSK-3β mutant, K94 replaced by alanine, SEQ ID NO:10 (protein)
chain: MSGRPRTTSFAESCKPVQQPSAFGSMKVSRDKDGSKVTTVVATPGQGPDRPQEVSYTDTKVIGNGSFGVVYQAKLCDSGELVAIKKVLQDKRFANRELQIMRKLDHCNIVRLRYFFYSSGEKKDEVYLNLVLDYVPETVYRVARHYSRAKQTLPVIYVKLYMYQLFRSLAYIHSFGICHRDIKPQNLLLDPDTAVLKLCDFGSAKQLVRGEPNVSYICSRYYRAPELIFGATDYTSSIDVWSAGCVLAELLLGQPIFPGDSGVDQLVEIIKVLGTPTREQIREMNPNYTEFKFPQIKAHPWTKDSSGTGHFTSGVRVFRPRTPPEAIALCSRLLEYTPTARLTPLEACAHSFFDELRDPNVKLPNGRDTPALFNFTTQELSSNPPLATILIPPHARIQAAASTPTNATAASDANTGDRGQTNNAASASASNST
modifications: GSK-3 beta, K94A mutant
[4]
  Substrate phosphorylation (% of WTGSK-3β), p9CREB: 71 ± 4 % of WTGSK-3β
[5]
  Substrate phosphorylation (% of WTGSK-3β), pGS-1: 19 ± 14 % of WTGSK-3β
[6]
  Substrate phosphorylation (% of WTGSK-3β), pIRS-1: 52 ± 19 % of WTGSK-3β

B3: D90A: GSK-3β mutant, D90 replaced by alanine, SEQ ID NO:6 (protein)
chain: MSGRPRTTSFAESCKPVQQPSAFGSMKVSRDKDGSKVTTVVATPGQGPDRPQEVSYTDTKVIGNGSFGVVYQAKLCDSGELVAIKKVLQAKRFKNRELQIMRKLDHCNIVRLRYFFYSSGEKKDEVYLNLVLDYVPETVYRVARHYSRAKQTLPVIYVKLYMYQLFRSLAYIHSFGICHRDIKPQNLLLDPDTAVLKLCDFGSAKQLVRGEPNVSYICSRYYRAPELIFGATDYTSSIDVWSAGCVLAELLLGQPIFPGDSGVDQLVEIIKVLGTPTREQIREMNPNYTEFKFPQIKAHPWTKDSSGTGHFTSGVRVFRPRTPPEAIALCSRLLEYTPTARLTPLEACAHSFFDELRDPNVKLPNGRDTPALFNFTTQELSSNPPLATILIPPHARIQAAASTPTNATAASDANTGDRGQTNNAASASASNST
modifications: GSK-3 beta, D90A mutant
[4]
  Substrate phosphorylation (% of WTGSK-3β), p9CREB: 92 ± 21 % of WTGSK-3β
[5]
  Substrate phosphorylation (% of WTGSK-3β), pGS-1: 83 ± 2 % of WTGSK-3β
[6]
  Substrate phosphorylation (% of WTGSK-3β), pIRS-1: 88 ± 15 % of WTGSK-3β

B4: K91A: GSK-3β mutant, K91 replaced by alanine, SEQ ID NO:7 (protein)
chain: MSGRPRTTSFAESCKPVQQPSAFGSMKVSRDKDGSKVTTVVATPGQGPDRPQEVSYTDTKVIGNGSFGVVYQAKLCDSGELVAIKKVLQDARFKNRELQIMRKLDHCNIVRLRYFFYSSGEKKDEVYLNLVLDYVPETVYRVARHYSRAKQTLPVIYVKLYMYQLFRSLAYIHSFGICHRDIKPQNLLLDPDTAVLKLCDFGSAKQLVRGEPNVSYICSRYYRAPELIFGATDYTSSIDVWSAGCVLAELLLGQPIFPGDSGVDQLVEIIKVLGTPTREQIREMNPNYTEFKFPQIKAHPWTKDSSGTGHFTSGVRVFRPRTPPEAIALCSRLLEYTPTARLTPLEACAHSFFDELRDPNVKLPNGRDTPALFNFTTQELSSNPPLATILIPPHARIQAAASTPTNATAASDANTGDRGQTNNAASASASNST
modifications: GSK-3 beta, K91A mutant
[4]
  Substrate phosphorylation (% of WTGSK-3β), p9CREB: 161 ± 5 % of WTGSK-3β
[5]
  Substrate phosphorylation (% of WTGSK-3β), pGS-1: 119 ± 5 % of WTGSK-3β
[6]
  Substrate phosphorylation (% of WTGSK-3β), pIRS-1: 140 ± 18 % of WTGSK-3β
